B1: TPR t1 (parent)
chain: GACCAAUCUGCCCUCAGAGCUCGAGAACAUCUUCGGAUGCAGAGGAGGCAGGCUUCGGUGGCGCGAUAGCGCCAACGUCCUCAACCUCCAAUGCAUCCCACCACAUGAUGAUGCCUGAAGAGCCUUGGUUUUUUG

Variants of: B1
Test: polymerase ribozyme fitness, log enrichment relative to wild type (log ratio); higher = more active; in vitro selection for triplet polymerase activity
Summary of the method: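 After PCR construction and transcription, each subunit's mutant library from a heterodimeric triplet polymerase ribozyme was annealed with a biotinylated primer, the partner subunit and triplets. Incubation was frozen, at −7 °C, and extended constructs were gel-excised, bound to streptavidin beads and amplified by RT-PCR, in one selection round done in triplicate. Fitness is the logarithm of a genotype's enrichment divided by that of the wild type, from inverse-variance-weighted replicate averages of Illumina-sequenced inputs and outputs. The base of the logarithm is 2, and genotypes needed ≥10 input reads and ≥1 read per output.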

Variant | polymerase ribozyme fitness (log ratio)
G10U C11A G36U U78G C115G | -5.09
C11A G61A C62A C80U G113C | -7.76
C11A C72A A91G U126G | -5.33
G10U C13G | 0.0488
C11A G107U G122A | -3.88
G10U G17A C56G C62U C79U | -4.53
C11A C13U C53A | -1.65
C11A C22U A91U C102U C115U G135U | -6.8
C11A A84G | -2.26
G10U U112G C123G | 0.673
C11A G93U | -1.93
C11A C49G | -1.67
C11A C72U U78C C82G C101A A121C | -0.882
C11A U21C U112G | -0.593
C11A G61A C80U C98U A100U | -4.96
G10U G63U C79U U132A | -0.795
C11A C94U | -1.19
G10U C13U G48A G61A A83U C98U G117A | -2.09
C11A G61C A100C A121U | -1.61
G10U G51C | -3.01
G10U G51A | -2.56
C11A G71U A91G A121U | 0.632
G10U C13G G45U C72A A91G C102A A118U C124G U132A U133C | -3.66
C11A C28U G36A U81A C85U G120A | -4.25

Variant | polymerase ribozyme fitness (log ratio)
C11A G45U C64A U78A A95C G113U | -7.43
C11A G69C | -2.03
C11A U30C G47A G63A A121G U131A | -3.75
G10U C11G U14A A37G C76U G93C C102A | -5.35
G10U C11A C13G G19A G57U A90G A91U | -2.55
G10U C62U A111C G117C | -5.6
G10U G48U | -0.243
C11A A91C | -2.43
G10U C72G A91G | -1.95
G10U G17U G45U C104U C124A | -1.08
G10U U54A | -1.28
G10U C28U G63A | -4.31
C11A G60A C101A C124G | 0.624
C11A C115U | -2.42
C11A G128C | -3.97
C11A A37G U59A U131C | -1.86
C11A G36U G48C C62G C115A G120C | -4.4
G10U C15G U21A A90G G93U G120C G135U | -3.07
G10U C13U U38G C123A | 1.31
C11A U33G | -6.86
G10U C12G C89G U96A G110U U112A G117C | -5.26
C11A C12A | -1.15
C11A C12U | -0.179
C11A G52U | -2.14

Variant | polymerase ribozyme fitness (log ratio)
C11A G52A | -1.58
C11A G63C | -1.78
G10U C56A C73G | -2.43
C11A C70G C80U C97G C124A | -5.66
G10U G71A | -0.104
G10U G71U | -0.746
G10U C64U G113C | -1.87
G10U C22A A119U | -5.31
C11A U38G C56U A90U | -3.35
C11A C12U A37G U78A U131A | -1.88
G10U G19C A37U C72A | -1.54
C11A A41U G47A U109A | -5.79
C11A C20U | -1.95
G10U C13G G120C | 1.66
C11A C72A A91G C101U G113C U132C | -4.14
G10U G93A | -0.609
G10U G42U | -2.78
C11A G71C | -2.37
C11A G45U G63U | -3.75
C11A C79U G120A | 1.38
C11A U38G G48C C115G G122U | -2.9
C11A G77A A84U G122A | -1.06
C11A C28G C80U | -3.39
G10U C40G G48U C102U | -3.36

Variant | polymerase ribozyme fitness (log ratio)
G10U C56G A68G | -4.36
G10U G45A U78A A100U | -1.09
C11A C13G C20U C53U U78G | -2.65
C11A G47A G77C A84G G128A | -4.94
G10U U87G C88G C98U G113A | -1.98
G10U C22G G60C C88A | -4.88
G10U C11G G52U U109C C114U | -5.43
C11A G122U | 0.0729
C11A G47A G61U A105U U126A | -5.18
C11A C49G G60A A75U G93U | -3.77
C11A G60U C97A C123U | -2.32
C11A C88G | -2.99
G10U U32C C56A C72A | -1.43
G10U C56G A111C | -0.962
G10U U92A A111G | -4.02
C11A C89U | -2.53
C11A C53U C76U C80G G117C | -7.25
C11A C53G G69U C72U | -1.37
G10U C76A G127C | -2.18
C11A G42C G51C G57U C62U U78C C89U G113A G122C | -6.22
G10U G51C U106C | -3.5
C11A C13U G63C A83U | -1.91
G10U G110U C114U | -3.42
G10U C11U C73A C88A U126C | -2.02

Variant | polymerase ribozyme fitness (log ratio)
G10U U14A G113C G122A | -3.62
C11A C49U C94G | -2.46
G10U C40A C76G A83U C101A | -3.85
C11A A16U C40U C56A | -4.65
G10U C82U | -0.583
C11A G77U | -2.4
G10U C73U | -0.579
G10U C20A | -3.25
G10U U30C C124G | -2.38
G10U C85U | -0.736
G10U G63A | -1.08
G10U G63C | -0.933
G10U G45U | -0.583
C11A C56A C89U | -1.96
C11A C40A A74G G135U | -2.09
C11A A29U U59A C70A G120A | -1.52
C11A C40U | -2.35
C11A C49G C64U A121U | 0.957
G10U U14A U132A | -1.64
G10U C62A G71U G127C | -0.898
C11A G39U | -1.81
G10U C34A G47A | -3.85
C11A U21A A50C | -1.95
C11A C13U A50U C62U | -2.9

Variant | polymerase ribozyme fitness (log ratio)
G10U G42A G45A G77C U78G U96C G128A U131G | -3.17
C11A C53G | -1.8
C11A C53U | -1.77
C11A G45C C62U | -2.56
C11A C49U G93A U129A | -3.29
C11A C13U G60C A100C U132C | -2.62
G10U G36A | -0.638
C11A C13U G63U | -2.94
C11A C13A C40U | -3.65
C11A C13U C53G A90C A91G | -3.8
G10U C115G | -1.99
G10U C115A | -0.281
G10U U78C C86U G110A | -1.98
C11A C85U | -1.28
G10U C49U G63A A100C | -3.83
G10U G71U C94A | -1.09
G10U C12U A43U A118U | -0.927
G10U C34U G44C U112C | -5
C11A G17U C115G C123G U126C | -3.25
C11A C89A G93A A118G | -3.96
G10U G61C | -1.82
C11A U54A C123A | 0.93
C11A C20U C40A A43U A119U | -5.02
G10U G93U U129C | -1.98

Variant | polymerase ribozyme fitness (log ratio)
G10U G44A G52U G122A C123U C124G U130G | -1.61
C11A C31G G47A U92C G120A U131A | -5.58
C11A C13U | -1.75
G10U A50U C89G | -2.96
G10U A50U G63A | -3.1
G10U G42U C104A G120C | -4.1
G10U C22G U106A G120C | -2.7
C11A U33G U54A C70U A95C U112A | -6.99
C11A A24C G122A C123G | -5.76
G10U C124U | 1.37
C11A G61A | -1.4
C11A G61U | -1.39
C11A A118G | -1.55
C11A G42U | -2.71
G10U G42U A91C U106A U112A | -0.271
G10U C88G G110C | -5.78
C11A C89A A111U G122A | -5.04
G10U C40G G52C C98U C123U | -2.05
G10U U32C C56A C64A | -6.8
C11A A29G C56G A91C U112A A121G G122C | -1.75
C11A G61U C102U | -3.03
C11A C76A | -2.77
C11A C49A U59A A68G A91G | -6.83
